Assay results from patent US8895303B2, “Method of cell culture and method of treatment comprising a vEPO protein variant” (Charite-Universitatsmedizin Berlin, priority 2006, dated 2014).

Experiments:
bone marrow cells = assay: Erythroid colony formation assay (CFU-E); assay type: cell-based, mouse; details: 150 U/l mEPO or rhEPO, comparable protein concentrations of variants; no additional cytokines; counted at DIV2
Protocol: Bone marrow cells were harvested from tibia and femur of male […] mice (8-11 weeks) and resuspended in α-medium (supplemented with 10% fetal calf serum GOLD, 1% penicillium/streptavidine and 1% L-glutamine). Cells were seeded in […] Petri dishes (225.000 cells/dish) containing 8 parts Metho Cult SF 3236 methyl cellulose (StemCell Technologie Inc), 1 part cells and 2 parts a-medium mixed with HEK-cell preconditioned medium containing the EPO derivates (150 U/l in the case of murine EPO). 150 U/l of rhEPO (Roche) was used as positive control. Plates were incubated at 37° C. in a humidified atmosphere containing 5% CO2 for 48 hours. For evaluation only reddish colonies containing at least 6 hemoglobinised cells were taken into account.
Metho Cult SF 3236 triggers the formation of colonies (CFU-M, CFU-G or CFU-E) only after addition of the appropriate cytokines. […] The small irregular reddish colonies disappear by day 3.
In this assay, the hematopoietic potential of the variants was tested and compared to wild type form of EPO as well as rhEPO. The following conditions were prepared for comparison: medium from HEK cells transfected with pZ/EG as negative control, medium from HEK cells transfected with pZ/EG cells plus 150U/l rhEPO (Roche) as a positive control, and medium from HEK cells transfected with either pZ/EG-EPO-IRES (150 U/l murine EPO), pZ/EG-Splice-IRES (variant S; mS) or pZ/EG-G3-IRES (variant G3; mG3). At DIV2 only reddish colonies were counted containing at least 6 hemoglobinised cells. The results of three independent experiments are depicted in FIG. 5.

[1] = test system: rat primary cortical neurons; assay: Oxygen glucose deprivation (OGD) neuroprotection assay, LDH release; assay type: cell-based; details: for neuroprotection (reduction in LDH release): OGD 3 h 15 min (higher level of damage)
Protocol: Rat primary neuronal cultures were obtained from E16 to early E19 embryos of Wistar rats (Bundesinstitut für gesundheitlichen Verbraucherschutz and Veterinärmedizin, Berlin, Germany). Cre-expressing mouse neurons were obtained from E16 embryos of heterozygous transgenic mice expressing Cre-recombinase under the control of the tubulin α-1 promoter (provided by Dr. U. Schweitzer; Experimental Endocrinology, Charité). Murine and rat cultures were prepared according to a modified protocol from Brewer (1995) J Neurosci Res. 42: 674-83. Cerebral cortex was isolated after removal of meninges and rinsed twice in PBS (Biochrom, Berlin, Germany). After 15 min incubation in trypsin/EDTA (0.05/0.02% w/v in PBS) at 37° C., tissues were rinsed twice in N-Med (modified Eagle's medium from Gibco with 10% fetal calf serum, 100 U penicillin plus streptomycin from Biochrom, 2 mM L-glutamine, 100 IE insulin/I, 10 mM HEPES and 44 mM glucose) and dissociated carefully in a small volume of N-Med using a Pasteur pipette. […]
For OGD, the culture medium was washed out by rinsing once with PBS. […] After 24 h, lactate dehydrogenase (LDH) activity was measured in the supernatants as an indicator of cell death.
For LDH measurement 25 μl of medium was mixed with 100 μl fresh β-NADH solution (0.15 mg/ml in 1×LDH-buffer; Sigma, reduced form) in a 96 wells plate (Greiner). 25 μl of 22.7 mM pyruvate (Sigma) was added immediately before placing the plate into the Reader (Thermo Labsystems; MRX^TC Revelation). […] LDH-concentration was calculated proportionally to the LDH-standard (Greiner, system calibrator). […]
For pretreatment with rhEPO, wild type mEPO, wild type hEPO or EPO variants the medium was removed to an end volume of 200 μl and filled up with 200 μl fresh NBM+B27 containing equimolar amounts (corresponding to 200 U/l rhEpo) of EPO or EPO variants, respectively. […] Cell death was assessed 24 h after OGD by measurement of LDH release. […]

B1: mG3: murine EPO variant, peptide sequence SEQ ID NO 16 (protein, listed as Mus musculus)
chain: MGVPERPTLLLLLSLLLIPLGLPVLCAPPRLICDSRVLERYILEAKEAENVTMGCAEGPRLSENITVPDTKVNFYAWKRMEVEEQAIEVWQGLSLLSEAILQAQALLANFLRGKLKLYTGEVCRRGDR
hematopoietic potential (formation of CFU-E) (bone marrow cells): lacked hematopoietic potential
neuroprotection (reduction in LDH release) [1]: ~60%

B2: mEPO: wild type mouse erythropoietin expressed in HEK cells (protein, listed as Mus musculus)
chain: MGVPERPTLLLLLSLLLIPLGLPVLCAPPRLICDSRVLERYILEAKEAENVTMGCAEGPRLSENITVPDTKVNFYAWKRMEVEEQAIEVWQGLSLLSEAILQAQALLANSSQPPETLQLHIDKAISGLRSLTSLLRVLGAQKELMSPPDTTPPAPLRTLTVDTFCKLFRVYANFLRGKLKLYTGEVCRRGDR
hematopoietic potential (formation of CFU-E) (bone marrow cells): formation of cfu-e
protection rate (reduction in LDH release) ([1]; OGD 1 h 40 min and 1 h 50 min): no protection

B3: mS: murine EPO splice variant, peptide sequence SEQ ID NO 14 (protein, listed as Mus musculus)
chain: MGVPERPTLLLLLSLLLIPLGLPVLCAPPRLICDSRVLERYILEAKEAENVTMGCAEGPRLSENITVPDTKVNFYAWKRMEKELMSPPDTTPPAPLRTLTVDTFCKLFRVYANFLRGKLKLYTGEVCRRGDR
hematopoietic potential (formation of CFU-E) (bone marrow cells): lacked hematopoietic potential
neuroprotection (reduction in LDH release) [1]: ~60%
